This note sets out measurements from PMC6778621.

pKd: −log10 of the molar value.

Experiment [1] deals with MET-ECD-Fc-His (WT) (human) (UniProt P08581). Kind of experiment: SPR. On the technique in general: In SPR one partner is held on a chip, and binding of the other changes the refractive index at the surface.
Experiment [2] concerns the target MET-ECD-Fc-His V370D (human) (UniProt P08581). Kind of experiment: SPR.

As for “SP domain of HGF (β-chain) (domain or fragment)”, the results for the pKd in experiment [1] and in experiment [2] were 6.07 and 6.04, respectively.
